In patent US20170174789A1 (Regeneron, published 2017):

T1: hTie2-mFc (human)
T1 chain: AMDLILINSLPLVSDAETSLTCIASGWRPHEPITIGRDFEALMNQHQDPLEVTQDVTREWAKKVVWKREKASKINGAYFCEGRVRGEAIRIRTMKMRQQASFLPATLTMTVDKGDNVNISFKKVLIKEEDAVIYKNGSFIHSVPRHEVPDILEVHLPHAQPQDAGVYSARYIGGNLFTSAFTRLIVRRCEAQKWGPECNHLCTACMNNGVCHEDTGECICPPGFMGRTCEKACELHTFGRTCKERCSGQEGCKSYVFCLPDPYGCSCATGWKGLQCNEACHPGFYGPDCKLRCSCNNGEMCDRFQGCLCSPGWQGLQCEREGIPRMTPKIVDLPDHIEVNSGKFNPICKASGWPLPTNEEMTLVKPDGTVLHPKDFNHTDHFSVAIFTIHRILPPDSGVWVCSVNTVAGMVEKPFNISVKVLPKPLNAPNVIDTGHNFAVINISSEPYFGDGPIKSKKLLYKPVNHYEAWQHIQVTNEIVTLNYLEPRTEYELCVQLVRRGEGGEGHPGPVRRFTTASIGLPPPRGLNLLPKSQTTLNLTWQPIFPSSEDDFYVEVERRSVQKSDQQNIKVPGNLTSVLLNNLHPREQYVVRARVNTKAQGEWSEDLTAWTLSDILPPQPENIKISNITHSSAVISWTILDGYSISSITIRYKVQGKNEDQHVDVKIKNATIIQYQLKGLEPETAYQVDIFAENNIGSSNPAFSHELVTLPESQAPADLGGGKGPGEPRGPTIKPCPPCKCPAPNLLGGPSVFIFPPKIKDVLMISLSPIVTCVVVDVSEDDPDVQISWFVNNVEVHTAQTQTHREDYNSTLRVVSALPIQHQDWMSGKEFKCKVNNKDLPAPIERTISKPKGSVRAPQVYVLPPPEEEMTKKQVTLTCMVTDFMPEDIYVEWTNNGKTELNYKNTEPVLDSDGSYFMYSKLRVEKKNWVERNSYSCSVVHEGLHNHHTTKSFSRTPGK

B1: H1H2339B (antibody, V domains shown)
VH: EVQLVESGGGLVQPGGSLRLSCAASGFTFSSYAMNWVRQAPGKGLEWVSSISGSGGNTYYADSVKGRFTISRDNSKNTLYLQLNSLRAEDTAVYYCAKDHSLSWYRNVFDIWGQGTMVTVSS
VL: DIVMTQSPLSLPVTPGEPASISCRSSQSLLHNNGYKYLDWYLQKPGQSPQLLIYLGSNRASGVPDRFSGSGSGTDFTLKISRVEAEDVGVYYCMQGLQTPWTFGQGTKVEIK
notes: Tested as H1H2339B (human IgG format, H1H prefix)
B2: H1H2340B (antibody, V domains shown)
VH: EVQLVESGGGLVQPGGSLRLSCAASGFTFSRYWMSWVRQAPGMGLEWVANIKQDGSEKNYVDSVKGRFTVSRDNAKNSLYLQMNSLRAEDTAVYYCASAIFGVVITSYWGQGTLVTVSS
VL: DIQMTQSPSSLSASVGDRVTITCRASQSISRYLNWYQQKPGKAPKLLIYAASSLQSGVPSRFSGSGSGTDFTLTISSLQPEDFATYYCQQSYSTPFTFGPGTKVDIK
notes: Tested as H1H2340B (human IgG format, H1H prefix); also called HIH2340B

Experiments:
[1] = molecular target: T2, hTie2-His (human, UniProt Q02763 23-745); test: SPR Biacore 37C, mAb captured
T2 construct: also called ecto-Tie2 fused to 6xHis; biotin-Tie2-His
Description: (§1) (Tables 3-6). Measurements were conducted on a Biacore 2000 or T200 instrument.
(§2) For antibodies with a mouse constant region (designated H1M or H2M), antibodies were immobilized onto an anti-mouse Fc sensor surface and different concentrations of human, mouse or rat Tie2 constructs (hTie2-His, mTie2-hFc and rTie2-hFc) were injected over the antibody captured surface. For antibodies in the human IgG format (designated H1H or H4H), either an anti-human Fc sensor surface (hTie2-His and hTie2-mFc) or anti-human Fab sensor surface (mTie2-hFc and rTie2-hFc) was employed depending on the Tie-2 construct applied to the antibody captured surface. Amino acid sequences of the constructs used in this Example are as follows: hTie2-His (SEQ ID NO:2); hTie2-hFc (SEQ ID NO:3); hTie2-mFc (SEQ ID NO:4); rTie2-hFc (SEQ ID NO:5); and mTie2-hFc (SEQ ID NO:6).
(§3) Kinetic rate constants—association rate (ka) and dissociation rate (kd) were determined by fitting the real time binding sensorgrams to a 1:1 binding model with mass transport limitation using Scrubber 2.0 curve fitting software. The equilibrium dissociation constant (KD) and dissociative half-life (T½) were calculated from the kinetic rate constants as: KD (M)=kd/ka; and T½ (min)=(In2/(60*kd).).

[2] = molecular target: T1, hTie2-mFc; test: SPR Biacore 37C, mAb captured
Description: as §1, §2, §3

[3] = molecular target: T2, hTie2-His; test: SPR Biacore 25C, mAb captured
Description: as §1, §2, §3

[4] = molecular target: T1, hTie2-mFc; test: SPR Biacore 25C, mAb captured
Description: as §1, §2, §3

[5] = molecular target: T3, rTie2-hFc (rat); test: SPR Biacore 25C, mAb captured
T3 construct: also called rat Tie2
T3 sequence (chain, as listed by the source limits assumed): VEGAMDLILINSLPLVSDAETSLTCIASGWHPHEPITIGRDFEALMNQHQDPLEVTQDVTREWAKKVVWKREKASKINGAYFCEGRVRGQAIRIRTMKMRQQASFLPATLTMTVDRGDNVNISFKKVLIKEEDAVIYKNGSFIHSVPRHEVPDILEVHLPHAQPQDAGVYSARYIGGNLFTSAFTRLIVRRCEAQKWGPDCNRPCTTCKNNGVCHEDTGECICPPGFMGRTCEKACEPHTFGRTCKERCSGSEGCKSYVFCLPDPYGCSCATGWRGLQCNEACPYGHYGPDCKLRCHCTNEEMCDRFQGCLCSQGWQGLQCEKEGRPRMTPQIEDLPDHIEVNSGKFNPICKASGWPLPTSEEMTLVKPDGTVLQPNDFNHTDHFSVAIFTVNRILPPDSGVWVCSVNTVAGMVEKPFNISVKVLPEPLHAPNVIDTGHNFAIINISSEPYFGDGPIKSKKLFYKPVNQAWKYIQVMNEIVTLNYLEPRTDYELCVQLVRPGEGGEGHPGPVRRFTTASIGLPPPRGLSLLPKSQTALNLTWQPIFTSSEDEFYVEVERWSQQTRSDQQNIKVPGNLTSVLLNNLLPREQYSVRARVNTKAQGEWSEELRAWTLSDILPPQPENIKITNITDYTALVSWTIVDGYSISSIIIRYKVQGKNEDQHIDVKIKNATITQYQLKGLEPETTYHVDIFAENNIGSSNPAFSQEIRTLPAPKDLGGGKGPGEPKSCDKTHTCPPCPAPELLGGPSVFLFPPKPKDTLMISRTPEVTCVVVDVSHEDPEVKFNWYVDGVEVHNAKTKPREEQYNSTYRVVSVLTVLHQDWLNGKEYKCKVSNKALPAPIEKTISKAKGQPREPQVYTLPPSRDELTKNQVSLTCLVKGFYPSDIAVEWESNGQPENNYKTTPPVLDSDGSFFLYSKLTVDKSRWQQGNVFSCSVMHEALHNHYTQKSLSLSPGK
Description: as §1, §2, §3

[6] = molecular target: T4, mTie2-hFc (mouse); test: SPR Biacore 25C, mAb captured
T4 construct: also called mouse Tie2
Description: as §1, §2, §3

[7] = molecular target: hTie2 on 293-Tie2/SRE-Luc cells (human, UniProt Q02763 23-1124); test: cell-based or functional assay

| Binder | Kd [1] [nM] | T½ [1] [min] | koff [1] [s⁻¹] | kon [1] [M⁻¹ s⁻¹] | Kd [2] [nM] | T½ [2] [min] | koff [2] [s⁻¹] | kon [2] [M⁻¹ s⁻¹] | Kd [3] [nM] | T½ [3] [min] | koff [3] [s⁻¹] | kon [3] [M⁻¹ s⁻¹] | Kd [4] [nM] | T½ [4] [min] | koff [4] [s⁻¹] | kon [4] [M⁻¹ s⁻¹] | Kd [6] [nM] | T½ [6] [min] | koff [6] [s⁻¹] | kon [6] [M⁻¹ s⁻¹] | further results |
| --- | --- | --- | --- | --- | --- | --- | --- | --- | --- | --- | --- | --- | --- | --- | --- | --- | --- | --- | --- | --- | --- |
| B1 | 72 | 2 | 0.00488 | 67800 | 1.53 | 39 | 0.000295 | 193000 | 22.4 | 9 | 0.00125 | 55800 | 0.67 | 114 | 0.000102 | 151000 | 56.3 | 4 | 0.00263 | 46800 | binding result [5]: no binding; EC50, Tie2 dependent luciferase activity, 293-Tie2/SRE-Luc cells with 1 nM BowAng1 [7]: 10.3 nM; EC50, Tie2 dependent luciferase activity, 293-Tie2/SRE-Luc cells with 1 nM BowAng2 [7]: 13 nM |
| B2 | 102 | 1 | 0.00998 | 97500 | 2.58 | 22 | 0.000515 | 200000 | 49.2 | 3 | 0.00345 | 70100 | 1.16 | 60 | 0.000191 | 165000 | 49.6 | 2 | 0.00672 | 136000 | Kd [5]: 25.9 nM; T½ [5]: 3 min; koff [5]: 0.00371 s⁻¹; kon [5]: 143000 M⁻¹ s⁻¹; EC50, Tie2 dependent luciferase activity, 293-Tie2/SRE-Luc cells with 1 nM BowAng1 [7]: 1.41 nM; EC50, Tie2 dependent luciferase activity, 293-Tie2/SRE-Luc cells with 1 nM BowAng2 [7]: 2.1 nM |
